{"source": "paper PMC3760798", "about": "“Analysis of the RelA:CBP/p300 Interaction Reveals Its Involvement in NF-κB-Driven Transcription” (PLoS Biology, 2013)", "binders": {"B1": {"name": "GB1-tagged RelA–TA2 fragment 425–508 wt (domain or fragment, mouse, UniProt Q04207 425-508, looked up)", "chain": "KSTQAGEGTLSEALLHLQFDADEDLGALLGNSTDPGVFTDLASVDNSEFQQLLNQGVSMSHSTAEPMLMEYPEAITRLVTGSQR", "notes": "GB1 is the 58-residue B1 domain of streptococcal protein G, kept for concentration determination; also called RelA–TA2 fragment of Lys425–Arg508; source: expressed as His6-GB1 fusion, purified; His6-tag cleaved by TEV protease; not shown: His6, N-terminal, cleaved; GB1, N-terminal, kept"}, "B2": {"name": "GB1-tagged RelA–TA2 fragment 425–508 (L465A) (domain or fragment, mouse, UniProt Q04207 425-508, looked up)", "chain": "KSTQAGEGTLSEALLHLQFDADEDLGALLGNSTDPGVFTDAASVDNSEFQQLLNQGVSMSHSTAEPMLMEYPEAITRLVTGSQR", "notes": "also called Leu465Ala; source: expressed as His6-GB1 fusion, purified; His6-tag cleaved by TEV protease; not shown: His6, N-terminal, cleaved; GB1, N-terminal, kept"}, "B3": {"name": "GB1-tagged RelA–TA2 fragment 425–508 (S467D) (domain or fragment, mouse, UniProt Q04207 425-508, looked up)", "chain": "KSTQAGEGTLSEALLHLQFDADEDLGALLGNSTDPGVFTDLADVDNSEFQQLLNQGVSMSHSTAEPMLMEYPEAITRLVTGSQR", "notes": "also called RelA(Ser467Asp); phosphomimetic mutant; source: expressed as His6-GB1 fusion, purified; His6-tag cleaved by TEV protease; not shown: His6, N-terminal, cleaved; GB1, N-terminal, kept"}, "B4": {"name": "GB1-tagged RelA–TA2 fragment 425–508 (L449A) (domain or fragment, mouse, UniProt Q04207 425-508, looked up)", "chain": "KSTQAGEGTLSEALLHLQFDADEDAGALLGNSTDPGVFTDLASVDNSEFQQLLNQGVSMSHSTAEPMLMEYPEAITRLVTGSQR", "notes": "also called Leu449Ala; source: expressed as His6-GB1 fusion, purified; His6-tag cleaved by TEV protease; not shown: His6, N-terminal, cleaved; GB1, N-terminal, kept"}, "B5": {"name": "GB1-tagged RelA fragment 441–508 wt (domain or fragment, mouse, UniProt Q04207 441-508, looked up)", "chain": "LQFDADEDLGALLGNSTDPGVFTDLASVDNSEFQQLLNQGVSMSHSTAEPMLMEYPEAITRLVTGSQR", "notes": "RelA (p65), mouse, residues 441-508; also called N-terminal truncation to remove residues Lys425–His440; source: expressed as His6-GB1 fusion, purified; His6-tag cleaved by TEV protease; not shown: His6, N-terminal, cleaved; GB1, N-terminal, kept"}, "B6": {"name": "TAZ1 domain of mouse CBP (residues 340–439) (domain or fragment)", "chain": "not shown", "notes": "Isotopically labelled in some NMR samples; also called CBP–TAZ1; CH1; source: purified"}, "B7": {"name": "GST-RelA fragment (Lys425–Pro490) Met483Ala (domain or fragment, mouse, UniProt Q04207 425-490, looked up)", "chain": "KSTQAGEGTLSEALLHLQFDADEDLGALLGNSTDPGVFTDLASVDNSEFQQLLNQGVSASHSTAEP", "notes": "also called RelA–TA2 M483A (GST); source: E. coli BL21(DE3), purified (glutathione sepharose); not shown: GST, N-terminal, kept"}, "B8": {"name": "RelA–TA2 (residues 425–490), tag cleaved (domain or fragment, mouse, UniProt Q04207 425-490, looked up)", "chain": "KSTQAGEGTLSEALLHLQFDADEDLGALLGNSTDPGVFTDLASVDNSEFQQLLNQGVSMSHSTAEP", "notes": "15N/13C labelled for NMR; source: expressed as His6-GB1 fusion, purified (Ni-NTA under denaturing conditions, thrombin cleavage, reverse-phase HPLC); not shown: His6, N-terminal, cleaved; GB1, N-terminal, cleaved"}, "B9": {"name": "GST-RelA fragment (Lys425–Pro490), wild type (domain or fragment, mouse, UniProt Q04207 425-490, looked up)", "chain": "KSTQAGEGTLSEALLHLQFDADEDLGALLGNSTDPGVFTDLASVDNSEFQQLLNQGVSMSHSTAEP", "notes": "also called GST-RelA–TA2; construct T11; source: E. coli BL21(DE3), purified (glutathione sepharose); not shown: GST, N-terminal, kept"}}, "settings_in_all_cases": "both partners purified", "key": {"[1]": {"target": "B6", "test": "ITC; TAZ1 (169 to 185 µM) in the syringe, GB1-tagged RelA–TA2 peptide (10 to 18 µM) in the cell; 25°C; 20 mM Tris pH 8.0, 50 mM NaCl, 1 mM DTT; single-binding site model"}, "[2]": {"target": "B6", "test": "ITC; TAZ1 (169 to 185 µM) in the syringe, GB1-tagged RelA–TA2 peptide (10 to 18 µM) in the cell; 25°C; 20 mM Tris pH 8.0, 150 mM NaCl, 1 mM DTT; single-binding site model"}, "[3]": {"target": "B1", "test": "ITC; TAZ1 (169 to 185 µM) in the syringe, GB1-tagged RelA–TA2 peptide (10 to 18 µM) in the cell; 25°C; 20 mM Tris pH 8.0, 50 mM NaCl, 1 mM DTT; single-binding site model"}, "[4]": {"target": "B3", "test": "ITC; TAZ1 (169 to 185 µM) in the syringe, GB1-tagged RelA–TA2 peptide (10 to 18 µM) in the cell; 25°C; 20 mM Tris pH 8.0, 50 mM NaCl, 1 mM DTT; single-binding site model"}, "[5]": {"target": "B1", "test": "ITC; TAZ1 (169 to 185 µM) in the syringe, GB1-tagged RelA–TA2 peptide (10 to 18 µM) in the cell; 25°C; 20 mM Tris pH 8.0, 150 mM NaCl, 1 mM DTT; single-binding site model"}, "[6]": {"target": "B3", "test": "ITC; TAZ1 (169 to 185 µM) in the syringe, GB1-tagged RelA–TA2 peptide (10 to 18 µM) in the cell; 25°C; 20 mM Tris pH 8.0, 150 mM NaCl, 1 mM DTT; single-binding site model"}, "[7]": {"target": "B4", "test": "ITC; TAZ1 (169 to 185 µM) in the syringe, GB1-tagged RelA–TA2 peptide (10 to 18 µM) in the cell; 25°C; 20 mM Tris pH 8.0, 150 mM NaCl, 1 mM DTT; single-binding site model"}, "[8]": {"target": "B2", "test": "ITC; TAZ1 (169 to 185 µM) in the syringe, GB1-tagged RelA–TA2 peptide (10 to 18 µM) in the cell; 25°C; 20 mM Tris pH 8.0, 150 mM NaCl, 1 mM DTT; single-binding site model"}, "[9]": {"target": "B5", "test": "ITC; TAZ1 (169 to 185 µM) in the syringe, GB1-tagged RelA–TA2 peptide (10 to 18 µM) in the cell; 25°C; 20 mM Tris pH 8.0, 150 mM NaCl, 1 mM DTT; single-binding site model"}, "[10]": {"target": "B6", "test": "pull-down; GST-RelA fragments (20 µg) on glutathione sepharose beads with purified TAZ1 (10 µg); 20 mM Tris pH 7.5, 150 mM NaCl, 0.5 mM DTT; 4°C, 30 min; washes with 0.3% TritonX-100; SDS-PAGE"}, "[11]": {"target": "B6", "test": "NMR structure; solution structure of the complex; refolded TAZ1 and RelA fragment mixed; 25°C, 20 mM Tris pH 6.5, 40 mM NaCl, 2 mM DTT; 0.7–1.2 mM protein"}}, "data": [{"binder": "B1", "values": [{"measurement": "Kd", "setting": "[1]", "result": 57, "unit": "nM"}, {"measurement": "Kd", "setting": "[2]", "result": 244, "unit": "nM"}]}, {"binder": "B2", "values": [{"measurement": "Kd", "setting": "[2]", "result": 1710, "unit": "nM"}]}, {"binder": "B3", "values": [{"measurement": "Kd", "setting": "[1]", "result": 41.2, "unit": "nM"}, {"measurement": "Kd", "setting": "[2]", "result": 174, "unit": "nM"}]}, {"binder": "B4", "values": [{"measurement": "Kd", "setting": "[2]", "result": 1600, "unit": "nM"}]}, {"binder": "B5", "values": [{"measurement": "Kd", "setting": "[2]", "result": 387, "unit": "nM"}]}, {"binder": "B6", "values": [{"measurement": "dH", "setting": "[3]", "result": -5.9, "unit": "kcal/mol"}, {"measurement": "dH", "setting": "[4]", "result": -6.5, "unit": "kcal/mol"}, {"measurement": "dH", "setting": "[5]", "result": -7.2, "unit": "kcal/mol"}, {"measurement": "dH", "setting": "[6]", "result": -7.8, "unit": "kcal/mol"}, {"measurement": "dH", "setting": "[7]", "result": -5.4, "unit": "kcal/mol"}, {"measurement": "dH", "setting": "[8]", "result": -2.4, "unit": "kcal/mol"}, {"measurement": "dH", "setting": "[9]", "result": -8.3, "unit": "kcal/mol"}]}, {"binder": "B7", "values": [{"measurement": "binding result", "setting": "[10]", "result": "binds"}]}, {"binder": "B8", "values": [{"measurement": "binding result", "setting": "[11]", "result": "binds"}]}, {"binder": "B9", "values": [{"measurement": "binding result", "setting": "[10]", "result": "binds"}]}]}
